Test results from PMC2957522 (Journal of molecular biology, 2010).

Biological target: rabbit skeletal muscle actin (monomeric, Mg-εATP-actin) (rabbit, UniProt P68135 1-377)
Experiment: actin nucleotide exchange kinetics

Row | Binder | Kd [µM]
1 | TgPRF β-hairpin deletion mutant (ΔBH) (natural protein) MSDWDPVVKEWLVDTGYCCAGGIANAEDGVVFAAAADDDDGWSKLYKDDNEASTIKAAVDDGSAPNGVWIGGQKYKVVRPEKGFEYNDCTFDITMCARSKGGAHLIKTPNGSIVIALYDEEKEQDKGNSRTSALAFAEYLHQSGY | > 150
2 | Toxoplasma gondii profilin (TgPRF) (natural protein, selenomethionine-substituted (level of selenium substitution essentially 100%)) MSDWDPVVKEWLVDTGYCCAGGIANAEDGVVFAAAADDDDGWSKLYKDDHEEDTIGEDGNACGKVSINEASTIKAAVDDGSAPNGVWIGGQKYKVVRPEKGFEYNDCTFDITMCARSKGGAHLIKTPNGSIVIALYDEEKEQDKGNSRTSALAFAEYLHQSGY | 13.9 ± 5
